Test results reported in patent publication US20070196872A1.

What was measured:
Frizzled4 = Frizzled4 (UniProt Q9ULV1); test: cell-based or functional assay
LRP5 (Zmax1) = LRP5 (Zmax1) (UniProt O75197); test: cell-based or functional assay
UniProt O75197, sequence (O75197 32-1615 limits assumed): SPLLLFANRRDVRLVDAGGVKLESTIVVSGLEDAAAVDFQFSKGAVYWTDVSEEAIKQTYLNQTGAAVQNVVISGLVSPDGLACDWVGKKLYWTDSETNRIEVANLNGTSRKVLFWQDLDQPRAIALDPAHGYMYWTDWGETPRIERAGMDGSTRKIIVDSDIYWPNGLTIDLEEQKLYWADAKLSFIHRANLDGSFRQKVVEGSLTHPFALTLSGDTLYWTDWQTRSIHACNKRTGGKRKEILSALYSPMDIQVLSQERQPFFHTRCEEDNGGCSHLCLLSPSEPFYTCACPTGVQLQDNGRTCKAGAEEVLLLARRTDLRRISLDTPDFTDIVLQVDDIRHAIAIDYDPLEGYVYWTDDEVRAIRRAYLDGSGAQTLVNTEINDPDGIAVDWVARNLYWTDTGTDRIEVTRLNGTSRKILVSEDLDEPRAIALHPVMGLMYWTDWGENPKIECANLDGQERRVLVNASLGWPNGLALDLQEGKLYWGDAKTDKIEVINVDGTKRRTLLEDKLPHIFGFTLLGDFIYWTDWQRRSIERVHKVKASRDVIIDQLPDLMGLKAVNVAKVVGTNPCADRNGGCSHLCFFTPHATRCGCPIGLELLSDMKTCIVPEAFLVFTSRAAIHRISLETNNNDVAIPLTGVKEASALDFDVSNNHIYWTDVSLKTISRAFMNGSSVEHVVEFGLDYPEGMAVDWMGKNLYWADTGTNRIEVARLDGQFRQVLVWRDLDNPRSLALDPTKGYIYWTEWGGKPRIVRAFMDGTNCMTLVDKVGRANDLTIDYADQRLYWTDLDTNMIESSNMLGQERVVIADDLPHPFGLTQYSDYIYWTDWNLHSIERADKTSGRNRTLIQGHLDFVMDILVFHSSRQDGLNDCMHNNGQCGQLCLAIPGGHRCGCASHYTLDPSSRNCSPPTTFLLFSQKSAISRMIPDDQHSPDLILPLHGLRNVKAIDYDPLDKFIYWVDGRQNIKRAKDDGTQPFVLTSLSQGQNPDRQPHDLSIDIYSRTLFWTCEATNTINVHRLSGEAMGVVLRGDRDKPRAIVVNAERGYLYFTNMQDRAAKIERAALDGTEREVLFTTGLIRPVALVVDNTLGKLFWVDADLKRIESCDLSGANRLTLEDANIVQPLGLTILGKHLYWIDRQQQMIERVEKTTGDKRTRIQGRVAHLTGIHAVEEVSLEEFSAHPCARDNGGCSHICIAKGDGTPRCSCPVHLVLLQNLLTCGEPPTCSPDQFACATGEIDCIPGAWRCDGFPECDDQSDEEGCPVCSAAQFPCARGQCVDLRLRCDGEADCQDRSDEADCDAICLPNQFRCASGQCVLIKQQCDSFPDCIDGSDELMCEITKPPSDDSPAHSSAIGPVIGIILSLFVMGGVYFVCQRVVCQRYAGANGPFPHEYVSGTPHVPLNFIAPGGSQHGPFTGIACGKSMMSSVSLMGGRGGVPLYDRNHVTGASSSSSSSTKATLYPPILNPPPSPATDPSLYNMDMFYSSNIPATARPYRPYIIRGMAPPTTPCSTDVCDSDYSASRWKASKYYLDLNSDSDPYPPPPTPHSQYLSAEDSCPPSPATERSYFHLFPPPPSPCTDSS

Norrin, sequence (Q00604 25-133 limits assumed): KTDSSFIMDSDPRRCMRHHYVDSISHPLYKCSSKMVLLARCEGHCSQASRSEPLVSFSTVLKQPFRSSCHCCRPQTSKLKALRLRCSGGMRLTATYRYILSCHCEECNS
UniProt Q9ULV1, sequence (Q9ULV1 37-537 limits assumed): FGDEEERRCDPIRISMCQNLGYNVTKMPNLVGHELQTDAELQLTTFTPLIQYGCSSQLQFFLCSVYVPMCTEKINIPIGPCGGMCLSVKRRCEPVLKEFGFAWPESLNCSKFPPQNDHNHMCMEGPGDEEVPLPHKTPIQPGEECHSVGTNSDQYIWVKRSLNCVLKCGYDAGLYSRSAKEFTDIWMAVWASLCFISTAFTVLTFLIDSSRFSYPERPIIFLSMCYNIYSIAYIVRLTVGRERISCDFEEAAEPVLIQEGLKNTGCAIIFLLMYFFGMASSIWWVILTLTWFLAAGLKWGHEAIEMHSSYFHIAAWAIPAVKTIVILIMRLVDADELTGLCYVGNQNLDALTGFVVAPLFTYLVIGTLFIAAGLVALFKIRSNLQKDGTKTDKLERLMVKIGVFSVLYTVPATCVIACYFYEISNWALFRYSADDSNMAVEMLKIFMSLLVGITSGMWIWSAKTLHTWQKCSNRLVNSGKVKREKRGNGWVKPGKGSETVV

TCF activity, further enhancement when Fz4, LRP5 and Norrin were all co-transfected in U20S cells (Frizzled4): 2 to 6 fold
TCF response (TCF-luci to renilla), Norrin and Fz4 co-transfected in HEK-293A cells (Frizzled4): 6 fold
TCF-signal, LRP5 co-transfected along with Fz4 and Norrin in HEK-293 cells (Frizzled4): < 16 fold
ratio of TCF-luci to renilla luminescence, Norrin cDNA alone transfected in U20S cells (endogenous Fz4 inferred) (Frizzled4): 2 to 3 fold
ratio of TCF-luci to renilla signal, Fz4 and Norrin co-transfected in U20S cells (Frizzled4): 15 fold
ratio of TCF-luci to renilla luminescence, Norrin and LRP5 co-transfected in U20S cells (LRP5 (Zmax1)): 6 fold
Substance: Norrin (from UniProt Q00604 25-133) (ligand)
